{"source": "patent CN112079918A", "about": "(CANVEST WUHAN BIOTECHNOLOGY CO LTD, dated 2020)", "binders": {"B1": {"name": "H7N9病毒特异性识别抗体P51C05 (IgG形式) (antibody, V domains shown)", "VH": "EVQLVQSGSELKKPGASVKVSCKASGYTFTSYTMNWVRQAPGQGLEWMGWINTNTGNPTYAQGFTGRFVFSLDTSVSTAYLQISSLKTEDTAVYYCARGVYGMDVWGQGTTVTVSS", "VL": "EIVLTQSPGTLSLSPGERATFSCRASQTVSNYLAWYQQKVGQAPRLLIYDASNRATGIPARFSGSGSGTDFTLTISSLEPEDFAVYYCQQRYNWPLTFGGGTKVEIKG"}}, "key": {"BSA": {"target": "BSA (UniProt P02769 25-607)", "sequence (P02769 25-607 limits assumed)": "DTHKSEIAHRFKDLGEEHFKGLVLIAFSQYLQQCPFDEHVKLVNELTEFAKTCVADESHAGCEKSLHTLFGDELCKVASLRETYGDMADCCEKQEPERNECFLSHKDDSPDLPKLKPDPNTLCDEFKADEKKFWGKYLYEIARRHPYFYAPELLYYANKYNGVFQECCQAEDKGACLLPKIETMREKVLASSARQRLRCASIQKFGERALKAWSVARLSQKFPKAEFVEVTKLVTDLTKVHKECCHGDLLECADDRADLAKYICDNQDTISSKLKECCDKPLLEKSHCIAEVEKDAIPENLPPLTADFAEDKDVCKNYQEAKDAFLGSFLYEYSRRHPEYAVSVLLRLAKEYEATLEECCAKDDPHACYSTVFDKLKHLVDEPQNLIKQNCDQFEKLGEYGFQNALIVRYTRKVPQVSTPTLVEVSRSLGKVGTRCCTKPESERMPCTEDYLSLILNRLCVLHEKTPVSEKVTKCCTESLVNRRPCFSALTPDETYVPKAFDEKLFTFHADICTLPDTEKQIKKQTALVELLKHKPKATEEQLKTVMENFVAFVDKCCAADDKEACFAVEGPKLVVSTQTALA", "experiment": "ELISA"}, "[1]": {"target": "17SF HA (A/Guangdong/17SF003/2016) hemagglutinin protein (influenza A virus A/Guangdong/17SF003/2016 (H7N9))", "experiment": "ELISA, P51C05 IgG on HA protein"}, "[2]": {"target": "SH02 HA (A/Shanghai/2/2013 H7N9) hemagglutinin protein (influenza A virus A/Shanghai/2/2013 (H7N9))", "experiment": "ELISA, P51C05 IgG on HA protein"}}, "data": [{"binder": "B1", "values": [{"measurement": "binding result", "setting": "BSA", "value": "no binding"}, {"measurement": "EC50", "setting": "[1]", "value": "< 1", "unit": "nM"}, {"measurement": "EC50", "setting": "[2]", "value": "< 1", "unit": "nM"}]}]}
